Source: patent US20220119506A1 (NOVOBIND LIVESTOCK THERAPEUTICS, published 2022)

T1: PirB (Vibrio parahaemolyticus)
T1 construct: also called JHE-like toxin PirB-like
T1 chain: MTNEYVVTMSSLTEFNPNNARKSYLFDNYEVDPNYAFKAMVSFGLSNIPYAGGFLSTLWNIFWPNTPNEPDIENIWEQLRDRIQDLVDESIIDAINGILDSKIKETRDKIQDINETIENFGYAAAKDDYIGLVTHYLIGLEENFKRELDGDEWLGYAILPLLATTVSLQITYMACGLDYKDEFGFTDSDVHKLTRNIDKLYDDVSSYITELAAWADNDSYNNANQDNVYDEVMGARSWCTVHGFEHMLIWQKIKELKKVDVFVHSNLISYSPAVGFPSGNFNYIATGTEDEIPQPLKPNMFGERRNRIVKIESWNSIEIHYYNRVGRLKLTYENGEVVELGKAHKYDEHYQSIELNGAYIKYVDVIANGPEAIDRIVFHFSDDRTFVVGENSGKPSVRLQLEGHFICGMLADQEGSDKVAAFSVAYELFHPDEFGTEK

T2: PirA (Vibrio parahaemolyticus)
T2 construct: also called JHE-like toxin PirA-like; vp19
T2 chain: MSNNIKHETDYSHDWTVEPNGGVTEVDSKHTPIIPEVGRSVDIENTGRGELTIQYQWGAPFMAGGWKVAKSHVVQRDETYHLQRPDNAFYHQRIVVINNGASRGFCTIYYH


Tests used:
PirB = biological target: T1, PirB; assay: phage ELISA, antigen-coated wells
PirA = biological target: T2, PirA; assay: phage ELISA, antigen-coated wells

Row | Binder | binding above PBS-coated wells (PirB) [%] | binding above PBS-coated wells (PirA) [%]
1 | NBX0841 (VHH, on phage in the phage ELISA) VHH: QVQLQESGGGLVQAGGSLRLSCAASARTFIYKMGWFRQAPGKERDFVASIMWSVGNNYYYTDSAKGRFTISRDIAKNTMYLQMDSLEPEDTGEYYCAAATTSTQWRYWGQGTQVTVSS | ≥ 50 | 
2 | NBX0849 (VHH, on phage in the phage ELISA) VHH: QVQLQESGGGLVQAGGSLRLSCAASGRTFNRYAMGWFRQAPGKEREFVAAISWSGNTQYTDSVKGRFTISRDDAKNTVYLQMNSLKPEDTAVYYCALRIPASSSTTYYYADQYDYWGQGTQVTVSS |  | ≥ 50
3 | NBX0836 (VHH, on phage in the phage ELISA) VHH: QVQLQQSGGGLVQPGGSLRLSCSASGIRLGSYVMGYYRQAPGKQRELVATVTSGGTTNRADSVKGRFTISRDNAKNAVYLQMNSLKPEDTAVYYCNARILFTNYWGQGTQVTVSS | ≥ 50 | 
4 | NBX0828 (VHH, on phage in the phage ELISA) VHH: QVQLQESGGGAVQAGGSLRLSCAGPRSIFSGNAMAWYRQVPGKQRETVATVNTGGLTWYGDFVKGRFTISRDDAKNTLLLQMDSLKPEDTAVYYCNAVLVRARGMWGQGTQVTVSS | ≥ 50 | 
5 | NBX0405 (VHH, on phage in the phage ELISA) VHH: QVQLQESGGGLVQAGDSLRLSCATSGRTFSRYTMGWFRQTPGKEREFVAAISWSGTYYTDSVKGRFTISRDNAKNTVYLQMNSLKPEDTAVYYCVVGSRRLYYSSDINYWGQGTQVTVSS | ≥ 50 | 
6 | NBX0649 (VHH, on phage in the phage ELISA) VHH: QVQLQQSGGGLVQPGGSLTLSCAASGSIASGNVLGWYRQAPGKQRELVATITSGGLTHYKDSVKGRFTISRDNAKNMVFLQMNSLKPEDTAVYYCNYRRLATGYWGQGTQVTVSS | ≥ 50 | 
7 | NBX0402 (VHH, on phage in the phage ELISA) VHH: QVQLQQSGGSLVQAGGSLRLSCAASGLPFINYAMGWFRQAPGKDREIVAAIDWNGDSTYYAVSVKGRFTISRDNAKNTVTLQMNSLKPEDTAIYYCASHYQPYIRVSATRRFEADYWGQGTQVTVSS |  | ≥ 50
8 | NBX0403 (VHH, on phage in the phage ELISA) VHH: QVQLQQSGGSLVQAGGSLRLSCAASGLPFINYAMGWFRQAPGKDREIVAAIDWNGDSTYYAVSVKGRFTISRDNAKNTVTLQMNSLKPEDTAIYYCAADYQPYIRVSATRRFEADYWGQGTQVTVSS |  | ≥ 50
9 | NBX0616 (VHH, on phage in the phage ELISA) VHH: QVQLQESGGGLVQAGGSLRLSCATSGLTFSSYAMGWFRQAPGKEREFVATISWSGKSTRYSDSVKGRFTISRDNAKNTVYLQMNSLKPEDTAVYYCAADYQRLGLLRVGVAEYDYWGQGIQVTVSS |  | ≥ 50
10 | NBX0639 (VHH, on phage in the phage ELISA) VHH: QVQLQESGGGLVQAGGSLRLSCAASGIVFSSIVMAWYRQAPGKQRELVASITNGGLVNSGDSVKGRFTISRDNAKNTVYLQMNSLKPEDTAVYYCNARRIMTSYWGQGTQVTVSS | ≥ 50 | 
11 | NBX0607 (VHH, on phage in the phage ELISA) VHH: QVQLQESGGGLVQAGGSLRLSCAASGGTFSRLTMGWFRQAPGEEREFVAAVSWVAETTDYADSVKGRFSISRDNSKNTVYLQMNSLKPVDTAVYYCAAGPRDMIRSRNIRSYDSWGQGTQVTVSS |  | ≥ 50
12 | NBX0632 (VHH, on phage in the phage ELISA) VHH: QVQLQQSGGGLVQAGGSLRLSCAASGGTFSRLTMGWFRQAPGEEREFVAAVSWVAGTTDYADSVKGRFTISRDNSKNTVHLQMNSLKPVDTAVYYCAAGPRDMIRSRNIRSYDSWGQGTQVTVSS |  | ≥ 50
13 | NBX0619 (VHH, on phage in the phage ELISA) VHH: QVQLQQSGGGLVQAGGSLRLFCAASGGTFSRLTMGWFRQAPGEEREFVAAVSWVAETTDYADSVKGRFSISRDNSKNTVYLQMNNLKPVDTAVYYCAAGPRDMIRSRNIRSYDSWGQGTQVTVSS |  | ≥ 50
14 | NBX0629 (VHH, on phage in the phage ELISA) VHH: QVQLQQSGGGLVQAGGSLRLSCAASGGTFSRLTIGWFRQAPGEERVFVAAVSWVAETTDYADSVKGRFSISRDNSKNTVYLQMNSLKPVDTAVYYCAAGPRDMIRSRNIRSYDSWGQGTQVTVSS |  | ≥ 50
15 | NBX0844 (VHH, on phage in the phage ELISA) VHH: QVQLQESGGGLAQTGDSLRLSCAASGRMFSGFVMGWYRQNPGKQRELVATITNGGLTHYGDSVKGRFTISRDNAKNTVYLQMNSLKSEDSAVYYCNARRLFTNYWGQGTQVTVSP | ≥ 50 | 
16 | NBX0640 (VHH, on phage in the phage ELISA) VHH: QVQLQESGGGLVQPGGSLRLSCAASGSIFSGNVMGWYRQVPGKQRDLVATITGGGITRYADSVKGRFTISRDNAKNTVYLQMNSLKPEDTAVYYCHYRRIMQQYWGQGTQVTVSS | ≥ 50 | 
17 | NBX0646 (VHH, on phage in the phage ELISA) VHH: QVQLQESGGGLVQAGGSLRLSCAASGSIFSGNVMGWYRQVPGNQRELVATITGGGVTRYADSVKARFTISRDNAKNTVYLQMNSLKPEDTAVYYCHYRRIMQQSWGQGTQVTVSS | ≥ 50 | 
18 | NBX0647 (VHH, on phage in the phage ELISA) VHH: QVQLQESGGGSVPPGGSLRLSCAASGSIFSGNVMAWYRQVPGKQRDLVASMTGGGVTRYADSVIARFTISRDNVKNTVYLQMNSLKPEDTAVYYCHYRRIMQQYWGQGTQVTVSS | ≥ 50 | 
19 | NBX0643 (VHH, on phage in the phage ELISA) VHH: QVQLQESGGGLVQAGGSLRLSCEASGSIFSGNVMGWYRQVPGKQRDLVATMTGGGVTRYADSVKARFTISRDNAKNTVYLQMNSLKPEDTGVYYCHYRRIMQQYWGQGTQVTVSS | ≥ 50 | 
20 | NBX0644 (VHH, on phage in the phage ELISA) VHH: QVQLQESGGGLVQAGGSLRLSCAASGSIFSGNVMGWYRQVPGKQRDLVATITGGGITRYADSVKGRFTISRDNAKNKVYLQMNGLKPEDTAVYFCFYRRIMQQYWGQGTQVTVSS | ≥ 50 | 
21 | NBX0638 (VHH, on phage in the phage ELISA) VHH: QVQLQESGGGLVQAGGSLRLSCAASGSIFSGNVMGWYRQVPGKQRDLVATITGGGITRYADSVKGRFTISRDNAKNTVYLQMNSLKPEDTAVYYCNYRRIMQQYWGKGTLVTVSS | ≥ 50 | 
22 | NBX0650 (VHH, on phage in the phage ELISA) VHH: QVQLQESGGGLVQAGGSLRLSCEASGSIFSGNVLGWYRQVPGKQRDLVATITGGGITRYADSVKGRFTISRDNAKNTVYLQMNALKPEDTAVYYCHYRRIMQQYWGQGTQVTVSS | ≥ 50 | 
23 | NBX0645 (VHH, on phage in the phage ELISA) VHH: QVQLQESGGGLVQAGGSLRLSCAASGSIFSGNVMGWYRQVPGKQRDLVATITGGGITHYADSVKGRFTISRDNAKNTVYLQMNSLKPEDTAVYYCLYRRIMQQYWGQGTQVTVSS | ≥ 50 | 
24 | NBX0642 (VHH, on phage in the phage ELISA) VHH: QVQLQQSGGGLVQAGGSLRLSCVASTVTFSRYAMGWFRQAPGKEREVVAGISGSGHRTYYGDFVKGRFTISRDNAKKTVYLQMNNLKPEDTAVYYCAGDLVAKFDSAYRVSYDSWGQGTQVTVSS | ≥ 50 | 
25 | NBX0648 (VHH, on phage in the phage ELISA) VHH: QVQLQESGGGLVQAGGSLRLSCEASGIIFSSNVMGWYRQAPGKQRELVASRTSGGLTNYADSAKGRFTISRDNAKNTVYLQMNSLKPEDTAVYYCNARRLFTNYWGQGTQVTVSS | ≥ 50 | 
26 | NBX0834 (VHH, on phage in the phage ELISA) VHH: QVQLQESGGGSVQAGGSLRLSCAASESMFRDHNMGWYRQAPGKQRELVATISRGGLINYGDSVRGRFTISRDNAKNTIYLQMNSLKVEDTAVYYCNARRLLTTVWGQGTQVTVSP | ≥ 50 | 
27 | NBX0401 (VHH, on phage in the phage ELISA) VHH: QVQLQQSGGGLVRAGGSLRLSCETSGRTFSSYTMGWFRQAPGKEREFVGTIDWWSSSSSYADSVKGRFTISRDNAKNTVYLQMNSLKPEDTAVYYCAASGKYGLAYSRRDYAYWGQGTQVTVSS |  | ≥ 50
28 | NBX0641 (VHH, on phage in the phage ELISA) VHH: QVQLQESGGGLVQAGGSLRLSCAASGSISNSYVMGWYRQAPGKQRELVATITSGGLTNYAQSLKGRFTISRDNAKNTVYLQMTSLEPEDTAVYYCNARVIFTTYWGQGTQVTVST | ≥ 50 | 
29 | NBX0605 (VHH, on phage in the phage ELISA) VHH: QVQLQESGGGLVQPGGALRLSCAASGSFFSIYAMAWYRQAPGKQRELVAGITSGSETNYADSVKGRFTISRDNAKNTVYLQMNSLKLEDTAVYYCNRWAPLTRLDYWGQGTQVTVSS |  | ≥ 50
30 | NBX0840 (VHH, on phage in the phage ELISA) VHH: QVQLQQSGGGLVQAGGSLRLSCAASGSIRSSNVMGWYRQTPGKQRELVATMTAGGLTNYADSVKGRFTISRDNAKNTVYLQMNSLKPEDTAVYYCHYRRIFNVYWGQGTQVTVSS | ≥ 50 | 
